Reference: article PMC10713829

Experiments:
[1] = target: HLA-A*01:01/hβ2m complex (empty, peptide-free or peptide-receptive) (human); assay: fluorescence polarisation
[2] = target: HLA-A*01:01/hβ2m complex (empty, peptide-free or peptide-receptive) (human); assay: differential scanning fluorimetry
[3] = target: HLA-A*01:01/hβ2m complex (empty, peptide-free or peptide-receptive) (human); assay: NMR titration

IC50 [1]: 260 nM | reduction in the population of empty HLA-A*01:01 after 0.5 h with peptide [2]: 50% | half-life of peptide association (t1/2) [3]: < 3.7 h
B1: NRAS_(55-64) Q61K peptide (…) (peptide)
peptide: ILDTAGKEEY
